Source: US20260167679A1, “FUSION PROTEIN TARGETING MITOCHONDRIA, METHOD OF MAKING AND USE THEREOF” (UNIVERSITY OF ROCHESTER, priority 2020, published 2026)

Test system: AMPK
Assay: Immunoblot of phosphorylated AMPK
Type: in vivo, Caenorhabditis elegans
Settings: animals removed from food, mtON activation
Experimental: Synchronized young adult animals were exposed to 1 Hz light (Quantum LED, 0.02 mW/mm2) for 4 h, and immediately harvested with ice-cold M9 media and centrifuged at 1,000×g for 1 min. Animals were ground by plastic pestle disruption in lysis buffer (20 mM Tris-HCl, 100 mM NaCl, 1 mM EDTA, 1 mM DTT, 10% glycerol, 0.1% SDS, pH 7.6, 1×Halt™ protease inhibitor cocktail, Thermo78429) and diluted 1:1 in sample loading buffer (100 mM Tris-HCl, 10% v/v glycerol, 10% SDS, 0.2% w/v bromophenol blue, 2% v/v b-mercaptoethanol). These samples were heated at 95° C. for 5 min. Isolated mitochondrial samples were prepared as described above and diluted 1:1 in sample loading buffer with 1% SDS. […] samples were loaded to 7.5% polyacrylamide gels and separated by SDS-PAGE. Proteins were transferred to nitrocellulose membranes and blocked in 5% non-fat milk/TBST (50 mM Tris, 150 mM NaCl, 0.05% Tween 20, pH 8.0) for 1 h at room temperature. Membranes were incubated at 4° C. in primary antibodies diluted 1:1,000 in 5% bovine serum albumin:anti-GFP (ClonTech Living Colours #ab632375), anti-ATP5a (Abcam, #ab14748), 1:60 anti-HSP60 (Department of Biology, Iowa City, IA 52242; Developmental Studies Hybridoma Bank, University of Iowa Department of Biology, Iowa City, IA 52242), […], anti-Actin (Abcam #ab14128), and 1:10,000 antiphospho-AMPKa Rabbit (Cell Signaling, #2535). […]

B1: mtON: fusion of the 187 N-terminal amino acids of mouse IMMT1 to the light-activated proton pump (Mac) from Leptosphaeria maculans (protein)
chain: MLRACQLSGVTVAAQSCLCGKFVLRPLRPCRRYSTSSSSGLTAGKIAGAGLLFVGGGIGGTILYAKWDSHFRESVEKTIPYSDKLFGMVLGSAPYTVPLPKKPVQSGPLKISSVSEVMKDSKLPVAQSQKTKGDTPASAASTGAAQIISAAGDTLSVPAPAVQHEDTIKTECPNTNEGKSTSETTEEPAGLIVDQFEEVLMKTSQLFPLPTATQSAQPTHVAPVPTVLPDTPIYETVGDSGSKTLWVVFVLMLIASAAFTALSWKIPVNRRLYHVITTIITLTAALSYFAMATGHGVALNKIVIRTQHDHVPDTYETVYRQVYYARYIDWAITTPLLLLDLGLLAGMSGAHIFMAIVADLIMVLTGLFAAFGSEGTPQKWGWYTIACIAYIFVVWHLVLNGGANARVKGEKLRSFFVAIGAYTLILWTAYPIVWGLADGARKIGVDGEIIAYAVLDVLAKGVFGAWLLVTHANLRESDVELNGFWANGLNREGAIRIGEDDGAR
modifications: Synthetic Complete mtON fusion protein sequence
- AMPK phosphorylation: prevented this phosphorylation
